Here are results for 1 molecule from article PMC13379383.

This series deals with thrombin (human, UniProt P00734;P00734 328-363;364-622). The series is described as follows: AuNP aggregation (plasmonic scattering); 16 nM thrombin, 4.59 uM TBA, 0.1 M NaCl, pH 7.4; LoD 0.5 nM (not a Kd).

As for AGTCCGTGGTAGGGCAGGTTGGGGTGACT (ssDNA, 5'-amine C6 linker) [TBA (thrombin-binding aptamer)], the binding result was “binds”.
